Legend:
Settings in all cases: Homo sapiens; 10 uM
[1] = substrate: CNC[C@H](O)c1ccc(O)c(O)c1
Description: (§1) Activity of human recombinant CA5A at 10 uM by stopped-flow technique

[2] = substrate: NCCc1c[nH]cn1
Description: as §1

[3] = substrate: CNC[C@H](O)c1ccc(O)c(O)c1; remark: listed apart in the source
Description: (§2) Activity of human recombinant CA14 at 10 uM by stopped-flow technique

[4] = substrate: NCCc1c[nH]cn1; remark: listed apart in the source
Description: as §2

[5] = substrate: CNC[C@H](O)c1ccc(O)c(O)c1; remark: listed apart in the source
Description: (§3) Activity of human recombinant CA4 at 10 uM by stopped-flow technique

[6] = substrate: NCCc1c[nH]cn1; remark: listed apart in the source
Description: as §3

[7] = substrate: CNC[C@H](O)c1ccc(O)c(O)c1; remark: listed apart in the source
Description: (§4) Activity of human recombinant CA7 at 10 uM by stopped-flow technique

[8] = substrate: NCCc1c[nH]cn1; remark: listed apart in the source
Description: as §4

B1: Carbonic anhydrase 5A, mitochondrial (Homo sapiens), P35218 (protein)
chain: MLGRNTWKTSAFSFLVEQMWAPLWSRSMRPGRWCSQRSCAWQTSNNTLHPLWTVPVSVPGGTRQSPINIQWRDSVYDPQLKPLRVSYEAASCLYIWNTGYLFQVEFDDATEASGISGGPLENHYRLKQFHFHWGAVNEGGSEHTVDGHAYPAELHLVHWNSVKYQNYKEAVVGENGLAVIGVFLKLGAHHQTLQRLVDILPEIKHKDARAAMRPFDPSTLLPTCWDYWTYAGSLTTPPLTESVTWIIQKEPVEVAPSQLSAFRTLLFSALGEEEKMMVNNYRPLQPLMNRKVWASFQATNEGTRS
kcat [1]: 3.9 10^5/s
kcat [2]: 8.6 10^5/s

B2: Carbonic anhydrase 14 (Homo sapiens), Q9ULX7 (protein)
chain: MLFSALLLEVIWILAADGGQHWTYEGPHGQDHWPASYPECGNNAQSPIDIQTDSVTFDPDLPALQPHGYDQPGTEPLDLHNNGHTVQLSLPSTLYLGGLPRKYVAAQLHLHWGQKGSPGGSEHQINSEATFAELHIVHYDSDSYDSLSEAAERPQGLAVLGILIEVGETKNIAYEHILSHLHEVRHKDQKTSVPPFNLRELLPKQLGQYFRYNGSLTTPPCYQSVLWTVFYRRSQISMEQLEKLQGTLFSTEEEPSKLLVQNYRALQPLNQRMVFASFIQAGSSYTTGEMLSLGVGILVGCLCLLLAVYFIARKIRKKRLENRKSVVFTSAQATTEA
kcat [3]: 4.5 10^5/s
kcat [4]: 10 10^5/s

B3: Carbonic anhydrase 4 (Homo sapiens), P22748 (protein)
chain: MRMLLALLALSAARPSASAESHWCYEVQAESSNYPCLVPVKWGGNCQKDRQSPINIVTTKAKVDKKLGRFFFSGYDKKQTWTVQNNGHSVMMLLENKASISGGGLPAPYQAKQLHLHWSDLPYKGSEHSLDGEHFAMEMHIVHEKEKGTSRNVKEAQDPEDEIAVLAFLVEAGTQVNEGFQPLVEALSNIPKPEMSTTMAESSLLDLLPKEEKLRHYFRYLGSLTTPTCDEKVVWTVFREPIQLHREQILAFSQKLYYDKEQTVSMKDNVRPLQQLGQRTVIKSGAPGRPLPWALPALLGPMLACLLAGFLR
kcat [5]: 2.9 10^6/s
kcat [6]: 3.5 10^6/s

B4: Carbonic anhydrase 7 (Homo sapiens), P43166 (protein)
chain: MTGHHGWGYGQDDGPSHWHKLYPIAQGDRQSPINIISSQAVYSPSLQPLELSYEACMSLSITNNGHSVQVDFNDSDDRTVVTGGPLEGPYRLKQFHFHWGKKHDVGSEHTVDGKSFPSELHLVHWNAKKYSTFGEAASAPDGLAVVGVFLETGDEHPSMNRLTDALYMVRFKGTKAQFSCFNPKCLLPASRHYWTYPGSLTTPPLSESVTWIVLREPICISERQMGKFRSLLFTSEDDERIHMVNNFRPPQPLKGRVVKASFRA
kcat [7]: 10.4 10^5/s
kcat [8]: 15.2 10^5/s

Source: ChEMBL document CHEMBL1146311, “Carbonic anhydrase activators: L-Adrenaline plugs the active site entrance of isozyme II, activating better isoforms I, IV, VA, VII, and XIV” (Bioorg Med Chem Lett, 2007)
